Biological target: C-192 ( | human, UniProt P0CG48 1-76; P0CG48 1-76, L73P (from the printed letters 55-TLSDYNIQKESTLHLVLRPR-74), Lys63 of the acceptor ubiquitin in an isopeptide bond with the C-terminal glycine of the donor ubiquitin (Lys63-linked diubiquitin) | C-terminal glycine of the donor ubiquitin in an isopeptide bond …)
Assay: SPR; Biacore T200; C-192 immobilised on a CM5 chip by amine coupling (5 ug/mL in 10 mM sodium acetate pH 5.5, 400 RU); GLP-1R, GCGR (3.906-1000 nM) or KLB (0.195-200 nM) injected at 50 uL/min for 4 min, dissociation 10 min; 1:1 kinetic binding model
Conditions: both partners purified

B1: GCGR (receptor)
chain: AQVMDFLFEKWKLYGDQCHHNLSLLPPPTELVCNRTFDKYSCWPDTPANTTANISCPWYLPWHHKVQHRFVFKRCGPDGQWVRGPRGQPWRDASQCQMDGEEIEVQKEVAK
Kd: 19.4 nM | kon: 26300 M⁻¹ s⁻¹

From PMC10674394 (Pharmaceuticals, 2023)
